{"source": "paper PMC6053527", "about": "(Frontiers in Plant Science, 2018)", "molecules": {"B1": {"name": "SyMDH (Synechocystis sp. PCC 6803 substr. Kazusa) (protein)", "chain": "MNILEYAPIACQSWQVTVVGAGNVGRTLAQRLVQQNVANVVLLDIVPGLPQGIALDLMAAQSVEEYDSKIIGTNEYEATAGSDVVVITAGLPRRPGMSRDDLLGKNANIVAQGAREALRYSPNAILIVVTNPLDVMTYLAWKVTGLPSQRVMGMAGVLDSARLKAFIAMKLGACPSDINTLVLGGHGDLMLPLPRYCTVSGVPITELIPPQTIEELVERTRNGGAEIAALLQTGTAYYAPASSAAVMVESILRNQSRILPAATYLDGAYGLKDIFLGVPCRLGCRGVEDILEVQLTPEEKAALHLSAEAVRLNIDVALAMVSDG", "notes": "full ORF in pGEX5X-1, N-terminal GST tag kept, E. coli expression, glutathione-Sepharose purification"}}, "key": {"[1]": {"target": "T1, SyMDH (Synechocystis sp. PCC 6803, UniProt Q55383)", "T1 construct": "gene mdh; full ORF in pGEX5X-1, N-terminal GST tag kept, E. coli expression, glutathione-Sepharose purification", "T1 sequence (Q55383 1-324)": "B1 chain", "experiment": "spectrophotometric assay at […] nm with effector", "assay_type": "biochemical", "conditions": "read-out: % activity at 1 mM"}, "[2]": {"target": "T1, SyMDH", "experiment": "spectrophotometric assay at […] nm; fit to modified Michaelis-Menten equation", "assay_type": "biochemical", "conditions": "substrate inhibition by NAD+; oxidative reaction, 4.0 mM malate, 100 mM potassium phosphate pH 8.0"}, "[3]": {"substrate": "O=C(O)C[C@H](O)C(=O)O", "experiment": "purified protein", "conditions": "oxidative reaction, 8.0 mM NAD+, 100 mM potassium phosphate pH 8.0"}, "[4]": {"substrate": "NC(=O)C1=CN([C@@H]2O[C@H](COP(=O)(O)OP(=O)(O)OC[C@H]3O[C@@H](n4cnc5c(N)ncnc54)[C@H](O)[C@@H]3O)[C@@H](O)[C@H]2O)C=CC1", "experiment": "purified protein", "assay_type": "biochemical, Synechocystis sp. PCC 6803", "conditions": "reductive reaction, 0.1 mM oxaloacetate, 100 mM potassium phosphate pH 6.5; pH 6.5"}, "[5]": {"substrate": "NC(=O)c1ccc[n+]([C@@H]2O[C@H](COP(=O)(O)OP(=O)(O)OC[C@H]3O[C@@H](n4cnc5c(N)ncnc54)[C@H](O)[C@@H]3O)[C@@H](O)[C@H]2O)c1", "experiment": "purified protein", "assay_type": "biochemical, Synechocystis sp. PCC 6803", "conditions": "oxidative reaction, 4.0 mM malate, 100 mM potassium phosphate pH 8.0; pH 8.0"}, "[6]": {"substrate": "O=C(O)CC(=O)C(=O)O", "experiment": "purified protein", "assay_type": "biochemical, Synechocystis sp. PCC 6803", "conditions": "reductive reaction, 0.1 mM NADH, 100 mM potassium phosphate pH 6.5; no added effector; pH 6.5"}}, "data": [{"molecule": "O=C(O)/C=C/C(=O)O", "note": "[fumarate]", "values": [{"measurement": "activity at 1000 µM", "setting": "[1]", "result": "~170", "unit": "%"}]}, {"molecule": "NC(=O)c1ccc[n+]([C@@H]2O[C@H](COP(=O)(O)OP(=O)(O)OC[C@H]3O[C@@H](n4cnc5c(N)ncnc54)[C@H](O)[C@@H]3O)[C@@H](O)[C@H]2O)c1", "note": "[NAD^+]", "values": [{"measurement": "Ki", "setting": "[2]", "result": 14.5, "unit": "mM"}]}, {"molecule": "B1", "values": [{"measurement": "Km", "setting": "[3]", "result": 2600, "unit": "µM"}, {"measurement": "kcat", "setting": "[3]", "result": 0.43, "unit": "s⁻¹"}, {"measurement": "Km", "setting": "[4]", "result": 30, "unit": "µM"}, {"measurement": "kcat", "setting": "[4]", "result": 0.97, "unit": "s⁻¹"}, {"measurement": "Km", "setting": "[5]", "result": 580, "unit": "µM"}, {"measurement": "kcat", "setting": "[5]", "result": 0.21, "unit": "s⁻¹"}, {"measurement": "Km", "setting": "[6]", "result": 12, "unit": "µM"}, {"measurement": "kcat", "setting": "[6]", "result": 0.71, "unit": "s⁻¹"}]}]}
